Results from US20140199327A1, “METHODS OF PROMOTING DIFFERENTIATION” (Genentech, Inc., priority 2011, published 2014).

Assays:
[1] = target: T1, USP37-Flag (human USP37 with C-terminal Flag epitope) (human, UniProt Q86T82 1-979, limits assumed); assay: Flag immunoprecipitation of DUBs from 293T cells cotransfected with ID2, MG-132 treated (FIG. 2B)
T1 sequence (looked up): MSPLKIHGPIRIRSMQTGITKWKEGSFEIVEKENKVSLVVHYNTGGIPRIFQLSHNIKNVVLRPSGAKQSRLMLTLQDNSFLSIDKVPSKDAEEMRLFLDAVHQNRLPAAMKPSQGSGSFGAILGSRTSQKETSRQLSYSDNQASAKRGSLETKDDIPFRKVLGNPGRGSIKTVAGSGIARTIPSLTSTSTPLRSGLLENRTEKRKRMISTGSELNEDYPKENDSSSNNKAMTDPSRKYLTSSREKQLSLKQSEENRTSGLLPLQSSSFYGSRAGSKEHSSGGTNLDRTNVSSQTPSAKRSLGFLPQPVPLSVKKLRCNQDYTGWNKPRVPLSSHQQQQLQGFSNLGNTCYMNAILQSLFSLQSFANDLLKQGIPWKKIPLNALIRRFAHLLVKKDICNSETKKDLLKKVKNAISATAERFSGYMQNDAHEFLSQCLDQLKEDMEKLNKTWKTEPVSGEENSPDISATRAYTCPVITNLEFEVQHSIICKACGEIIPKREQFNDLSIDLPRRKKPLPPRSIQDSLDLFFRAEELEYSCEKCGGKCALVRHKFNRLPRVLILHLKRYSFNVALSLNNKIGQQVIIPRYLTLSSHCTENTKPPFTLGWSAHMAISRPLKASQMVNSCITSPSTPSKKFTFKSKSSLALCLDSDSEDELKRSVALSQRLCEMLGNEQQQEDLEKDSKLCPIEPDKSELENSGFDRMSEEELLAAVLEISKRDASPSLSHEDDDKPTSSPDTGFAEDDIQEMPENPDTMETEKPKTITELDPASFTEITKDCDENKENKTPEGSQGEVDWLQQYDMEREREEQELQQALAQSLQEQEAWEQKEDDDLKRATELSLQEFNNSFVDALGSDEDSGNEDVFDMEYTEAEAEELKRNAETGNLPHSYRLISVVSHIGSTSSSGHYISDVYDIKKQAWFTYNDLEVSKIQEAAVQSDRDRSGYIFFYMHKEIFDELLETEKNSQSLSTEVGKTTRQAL
Procedure: (§1) FIG. 2. […] (A) Western blot (WB) analysis of 293T transfected with Flag-tagged deubiquitinases (DUBs) or an empty vector (−). Where indicated, cells were treated with […] MG-132 for 4 hr. (B) Flag-tagged DUBs were immunoprecipitated (IP) from 293T cells cotransfected with ID2 and treated with […] MG-132 for 6 hr.

[2] = target: T2, USP45-Flag (human USP45 with C-terminal Flag epitope) (human, UniProt Q70EL2 1-814, limits assumed); assay: as above
T2 sequence (looked up): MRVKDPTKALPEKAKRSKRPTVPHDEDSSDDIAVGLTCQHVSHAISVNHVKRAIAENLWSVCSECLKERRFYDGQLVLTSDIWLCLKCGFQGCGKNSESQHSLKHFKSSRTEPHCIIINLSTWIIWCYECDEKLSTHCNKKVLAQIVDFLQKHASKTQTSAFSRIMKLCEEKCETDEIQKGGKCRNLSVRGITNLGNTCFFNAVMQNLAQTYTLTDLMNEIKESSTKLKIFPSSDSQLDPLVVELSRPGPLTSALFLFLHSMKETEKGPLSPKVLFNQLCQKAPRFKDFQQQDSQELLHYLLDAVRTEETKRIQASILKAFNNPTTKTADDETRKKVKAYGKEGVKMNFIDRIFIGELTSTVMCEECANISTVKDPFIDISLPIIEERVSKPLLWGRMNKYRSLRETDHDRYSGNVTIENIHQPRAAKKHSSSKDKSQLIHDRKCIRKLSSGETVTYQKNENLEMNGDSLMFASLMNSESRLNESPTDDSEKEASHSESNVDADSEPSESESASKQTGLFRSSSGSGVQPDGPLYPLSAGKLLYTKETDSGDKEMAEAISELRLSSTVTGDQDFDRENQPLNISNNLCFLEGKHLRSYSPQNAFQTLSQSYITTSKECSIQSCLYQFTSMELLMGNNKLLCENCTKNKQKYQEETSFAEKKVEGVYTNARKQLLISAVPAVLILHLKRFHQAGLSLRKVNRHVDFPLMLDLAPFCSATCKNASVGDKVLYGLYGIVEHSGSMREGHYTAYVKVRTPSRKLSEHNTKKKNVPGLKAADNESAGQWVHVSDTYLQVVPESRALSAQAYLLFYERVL
Procedure: as §1

[3] = target: T3, USP1-Flag (wild-type human USP1 with in-frame C-terminal Flag epitope) (human, UniProt O94782 1-785); assay: Flag immunoprecipitation of DUBs from 293T cells cotransfected with ID2, MG-132 treated; blot for ID2 (FIG. 2B)
T3 construct: Synthesised human USP1 cDNA in pRK2001, expressed in 293T cells; also called USP1 wild-type; WT
T3 sequence: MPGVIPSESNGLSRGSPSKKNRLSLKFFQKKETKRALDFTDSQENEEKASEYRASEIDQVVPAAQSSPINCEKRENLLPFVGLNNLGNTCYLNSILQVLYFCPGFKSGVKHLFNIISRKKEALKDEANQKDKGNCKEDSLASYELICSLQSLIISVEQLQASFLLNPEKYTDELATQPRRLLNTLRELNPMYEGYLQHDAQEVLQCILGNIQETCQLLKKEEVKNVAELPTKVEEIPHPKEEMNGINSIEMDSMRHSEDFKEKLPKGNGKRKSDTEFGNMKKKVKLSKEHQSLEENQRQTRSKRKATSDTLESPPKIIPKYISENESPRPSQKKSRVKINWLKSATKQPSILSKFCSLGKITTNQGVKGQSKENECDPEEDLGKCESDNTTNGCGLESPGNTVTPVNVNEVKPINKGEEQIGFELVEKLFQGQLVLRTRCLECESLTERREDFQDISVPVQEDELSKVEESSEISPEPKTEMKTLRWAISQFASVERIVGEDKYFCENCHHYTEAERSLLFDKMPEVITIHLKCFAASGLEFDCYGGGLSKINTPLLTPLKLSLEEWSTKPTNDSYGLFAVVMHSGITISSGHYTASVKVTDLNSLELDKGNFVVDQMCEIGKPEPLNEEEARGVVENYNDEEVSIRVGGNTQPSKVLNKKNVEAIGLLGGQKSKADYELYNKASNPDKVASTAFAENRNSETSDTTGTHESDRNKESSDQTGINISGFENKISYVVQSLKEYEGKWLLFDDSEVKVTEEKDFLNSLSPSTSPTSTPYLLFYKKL
Procedure: as §1

B1: ID2 (co-transfected / co-expressed in 293T cells) (other)
chain: MKAFSPVRSVRKNSLSDHSLGISRSKTPVDDPMSLLYNMNDCYSKLKELVPSIPQNKKVSKMEILQHVIDYILDLQIALDSHPTIVSLHHQRPGQNQASRTPLTTLNTDISILSLQASEFPSELMSNDSKALCG
notes: ID2 was amplified from Jurkat-derived cDNA; The methods describe only a C-terminal Flag version in pRK2001
B1: no binding [1]; no binding [2]; binds [3].
